Assay results published in article PMC11935020.

Target: improved light‐induced dimerizing protein (iLID) (Avena sativa | Escherichia coli)
Test: recruitment to the GUV membrane, fluorescence microscopy; 450 nM iLID (His tag on DGS–NTA (Ni) lipids, inner membrane) and 100 nM SspB–mCherry encapsulated in POPC GUVs with 5% DGS–NTA (Ni); external blue light for 15 min

B1: SspB Nano–mCherry (stringent starvation protein B, Nano, fused to mCherry), P0AFZ3 1-165 (natural protein)
chain: SSPKRPKLLREYYDWLVDNSFTPYLVVDATYLGVNVPVEYVKDGQIVLNLSASATGNLQLTNDFIQFNARFKGVSRELYIPMGAALAIYARENGDGVMFEPEEIYDELNI
modifications: not checked
- ratio of mCherry intensity at the GUV membrane to luminal intensity: 3 fold
